Laboratory results: PMC6259754
“And” between values parts separate entries of the source, which are not always exact repeats. Identical values can stand only once.

B1: Bovine fetuin (natural protein)
chain: IPLDPVAGYKEPACDDPDTEQAALAAVDYINKHLPRGYKHTLNQIDSVKVWPRRPTGEVYDIEIDTLETTCHVLDPTPLANCSVRQQTQHAVEGDCDIHVLKQDGQFSVLFTKCDSSPDSAEDVRKLCPDCPLLAPLNDSRVVHAVEVALATFNAESNGSYLQLVEISRAQFVPLPVSVSVEFAVAATDCIAKEVVDPTKCNLLAEKQYGFCKGSVIQKALGGEDVRVTCTLFQTQPVIPQPQPDGAEAEAPSAVPDAAGPTPSAAGPPVASVVVGPSVVAVPLPLHRAHYDLRHTFSGVASVESSSGEAFHVGKTPIVGQPSIPGGPVRLCPGRIRYFKI
modifications: glycoprotein with N-linked biantennary and triantennary complex oligosaccharides (sites not given)
B2: Bovine fibrinogen (complex)
chain 1: GPRLVERQQSACKETGWPFCSDEDWNTKCPSGCRMKGLIDEVDQDFTSRINKLRDSLFNYQKNSKDSNTLTKNIVELMRGDFAKANNNDNTFKQISEDLRSRIEILRRKVIEQVQRIKVLQKNVRDQLVDMKRLEVDIDIKIRSCKGSCSRALEHKVDLEDYKNQQKQLEQVIAINLLPSRDIQYLPLIKMSTITGPVPREFKSQLQEAPLEWKALLEMQQTKMVLETFGGDGHARGDSVSQGTGLAPGSPRKPGTSSIGNVNPGSYGPGSSGTWNPGRPEPGSAGTWNPGRPEPGSAGTWNPGRPEPGSAGTWNPGRPEPGSAGTWNPGRPEPGSAGTWNTGSSGSSSFRPDSSGHGNIRPSSPDWGTFREEGSVSSGTKQEFHTGKLVTTKGDKELLIDNEKVTSGHTTTTRRSCSKVITKTVTNADGRTETTKEVVKSEDGSDCGDADFDWHHTFPSRGNLDDFFHRDKDDFFTRSSHEFDGRTGLAPEFAALGESGSSSSKTSTHSKQFVSSSTTVNRGGSAIESKHFKMEDEAESLEDLGFKGAHGTQKGHTKARPARGIHTSPLGEPSLTP
chain 2: GHRPYDKKKEEAPSLRPVPPPISGGGYRARPATATVGQKKVERKPPDADGCLHADPDLGVLCPTGCKLQDTLVRQERPIRKSIEDLRNTVDSVSRTSSSTFQYITLLKNMWKGRQNQVQDNENVVNEYSSHLEKHQLYIDETVKNNIPTKLRVLRSILENLRSKIQKLESDVSTQMEYCRTPCTVTCNIPVVSGKECEKIIRNEGETSEMYLIQPEDSSKPYRVYCDMKTEKGGWTVIQNRQDGSVDFGRKWDPYKQGFGNIATNAEGKKYCGVPGEYWLGNDRISQLTNMGPTKLLIEMEDWKGDKVTALYEGFTVQNEANKYQLSVSKYKGTAGNALIEGASQLVGENRTMTIHNSMFFSTYDRDNDGWKTTDPRKQCSKEDGGGWWYNRCHAANPNGRYYWGGAYTWDMAKHGTDDGVVWMNWQGSWYSMKKMSMKIRPYFPEQ
chain 3: YVATRDNCCILDERFGSYCPTTCGIADFLNNYQTSVDKDLRTLEGILYQVENKTSEARELVKAIQISYNPDQPSKPNNIESATKNSKSMMEEIMKYETLISTHESTIRFLQEVYNSNSQKIVNLRDKVVQLEANCQEPCQDTVKIHDVTGRDCQDVANKGAKESGLYFIRPLKAKQFLVYCEIDGSGNGWTVFQKRLDGSLDFKKNWIQYKEGFGHLSPTGTGNTEFWLGNEKIHLISTQSSIPYVLRIQLEDWNGRTSTADYASFKVTGENDKYRLTYAYFIGGDAGDAFDGYDFGDDSSDKFFTSHNGMQFSTWDSDNDKYDGNCAEQVGIGWWMNKCHAGHLNGVYYQGGTYSKTSTPNGYDNGIIWATWKSRWYSMKKTTMKIIPLNRLAIGEGQQHQLGGAKQVGVEHHVEIEYD

Key:
[1] = molecular target: Phaseolus acutifolius agglutinin (lectin from white tepary bean, Phaseolus acutifolius variety latifolius) (Phaseolus acutifolius); experiment: native gel or EMSA
[2] = molecular target: Phaseolus acutifolius agglutinin (lectin from white tepary bean, Phaseolus acutifolius variety latifolius) (Phaseolus acutifolius); experiment: SEC
[3] = molecular target: Phaseolus acutifolius agglutinin (lectin from white tepary bean, Phaseolus acutifolius variety latifolius) (Phaseolus acutifolius); experiment: SEC; TSK 3000 SW HPLC column in PBS, 0.5 mL/min, 0.1 mg pure lectin; data not shown
[4] = molecular target: Phaseolus acutifolius agglutinin (lectin from white tepary bean, Phaseolus acutifolius variety latifolius) (Phaseolus acutifolius)

| Molecule | stoichiometry N [1] | stoichiometry N [2] | stoichiometry N [3] | Inhibitory concentration (lowest concentration giving complete inhibition) of hemagglutination of trypsinized human A erythrocytes by PAA [4] [mg/mL] | Inhibitory concentration (lowest concentration giving complete inhibition) of hemagglutination of trypsinized human O erythrocytes by PAA [4] [mg/mL] |
| --- | --- | --- | --- | --- | --- |
| Phaseolus acutifolius agglutinin (lectin from white tepary bean, Phaseolus acutifolius variety latifolius) (natural protein) | > 4 | 4 and 2 | 2 | – | – |
| Recombinant soluble human β-1,6-N-acetylglucosaminyltransferase V (from UniProt Q09328 1-741) (enzyme) | – | – | – | 0.0273 | 0.0017 |
| Ovoalbumin (from UniProt P01012 1-386) (natural protein) | – | – | – | 1.3 | 1.3 |
| Porcine thyroglobulin (from UniProt F1RRV3 20-2692) (natural protein) | – | – | – | 0.0048 | 0.0048 |
| B1 | – | – | – | 0.156 | 0.0781 |
| B2 | – | – | – | 0.0391 | 0.0098 |
